The text below walks through data of PMC12712897.

Experiment [1] has as its target type I interleukin-1 receptor (UniProt P14778). As to the kind of experiment: MST; fluorescently labeled IL-1R1 titrated with serially diluted IL-1Ra variants and IL-1β; Monolith NT.115-pico.
Experiment [2] shares this target. Nature of the experiment: SPR; IL-1R1 captured on a CM5 chip via a His Capture Kit; various concentrations of IL-1Ra variants and IL-1β flowed as analytes; Biacore T200.
For experiment [3] the target is unchanged.
The target is the same in experiment [4]. This is another data set of the same source.

Sequence of UniProt P14778 (P14778 18-336): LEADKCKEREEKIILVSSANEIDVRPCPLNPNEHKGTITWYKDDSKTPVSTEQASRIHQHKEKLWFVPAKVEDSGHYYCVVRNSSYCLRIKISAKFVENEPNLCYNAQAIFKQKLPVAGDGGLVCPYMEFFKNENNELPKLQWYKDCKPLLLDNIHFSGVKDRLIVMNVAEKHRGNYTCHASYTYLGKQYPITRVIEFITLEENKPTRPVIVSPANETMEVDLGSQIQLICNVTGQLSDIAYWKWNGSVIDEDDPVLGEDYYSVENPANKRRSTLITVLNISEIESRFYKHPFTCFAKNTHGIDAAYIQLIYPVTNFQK

For the substance hIL-1Ra E127C (natural protein), the figures for the Kd in experiment [1] and in experiment [2] were 7.52 nM and 0.396 nM, respectively.

Regarding hIL-1Ra E127D (natural protein), the Kd in experiment [1] came to 40.6 nM; in experiment [2] it was 3.5 nM.

On to hIL-1Ra E127H (natural protein), for which the Kd in experiment [1] was found to be 4.59 nM; in experiment [2], 0.256 nM.

With hIL-1Ra E127K (natural protein), the reduction of IL-1β mRNA in HMC-3 cells (IL-1β 1 ng/ml + hIL-1Ra 25 ng/ml, 24 h; blocks IL-1β acting on IL-1R1) compared with RD hIL-1Ra WT in experiment [3] is 35%. In addition, in experiment [3], the reduction of IL-1β mRNA in HMC-3 cells (IL-1β 1 ng/ml + hIL-1Ra 25 ng/ml, 24 h; blocks IL-1β acting on IL-1R1) compared with iPT hIL-1Ra WT was found to be 32%. Also, the Kd in experiment [1] turned out to be 5.54 nM; in experiment [2], 0.41 nM.

On to hIL-1Ra E127N (natural protein), for which the dissociation constant (Kd) amounted to 6.06 nM in experiment [1] and 0.281 nM in experiment [2].

As to hIL-1Ra E127Q (natural protein), in experiment [4], the reduction of IL-6 mRNA in HMC-3 cells (IL-1β 1 ng/ml + hIL-1Ra 25 ng/ml, 24 h; blocks IL-1β acting on IL-1R1) compared with RD hIL-1Ra WT worked out at 53% and the reduction of IL-6 mRNA in HMC-3 cells (IL-1β 1 ng/ml + hIL-1Ra 25 ng/ml, 24 h; blocks IL-1β acting on IL-1R1) compared with iPT hIL-1Ra WT turned out to be 49%. In addition, the Kd in experiment [1] worked out at 3.84 nM. Also, the Kd in experiment [2] came out at 0.283 nM.

For hIL-1Ra E127S (natural protein), the Kd in experiment [1] was 2.45 nM; in experiment [2] it was 0.248 nM.

Consider hIL-1Ra E127V (natural protein), for which the values for the Kd in experiment [1] and in experiment [2] were 4.61 nM and 0.258 nM, respectively.
